# Results published in article PMC12205649.
# B1: E. coli CsgC, P52107 9-110 (natural protein)
# chain: ALSSQITFNTTQQGDVYTIIPEVTLTQSCLCRVQILSLREGSSGQSQTKQEKTLSLPANQPIALTKLSLNISPDDRVKIVVTVSDGQSLHLSQQWPPSSEKS
# Legend:
# [1] = target: E. coli CsgC (E. coli) (UniProt P52107)
# [2] = target: E. coli CsgA fibrils (sonicated amyloid fibres of WT CsgA) (E. coli) (UniProt P28307); experiment: SPR; BIAcore 3000, CM5 chip; sonicated CsgA fibrils amine-coupled at 1300 RU; gel-filtered CsgC injected 5 min at 4 to 0.25 μM (two-fold dilutions); phosphate buffer pH 7.5, 0.05% Tween, 25 °C; fitted with Scrubber2
# [3] = target: E. coli CsgA, freshly purified monomer (E. coli) (UniProt P28307); experiment: native MS; ion mobility-mass spectrometry (nESI, Synapt G2); CsgA and CsgC each diluted to 20 μM and mixed 1:1 in 20 mM ammonium acetate pH 7.4, incubated at 37 °C, time points 0, 3, 6 and 23 h
# [4] = target: T1, E. coli CsgC (E. coli), P52107; experiment: as above; conditions: remark: other sources report otherwise
# T1 chain: B1 chain
molecule,measurement,setting,value
"E. coli CsgA, freshly purified monomer (from UniProt P28307 21-151) (natural protein)",ThT binding assay: increase in lag time of CsgA eluted from the CsgC-linked column compared with CsgA eluted from the Tris-quenched column,[1],51 min
same,ThT binding assay: increase in time to half maximum ThT fluorescence of CsgA eluted from the CsgC-linked column compared with CsgA eluted from the Tris-quenched column,[1],52 min
E. coli CsgC (from UniProt P52107 9-110) (natural protein),Kd,[2],360 nM
same,koff,[2],0.00118 s⁻¹
same,stoichiometry N,[3],1
B1,stoichiometry N,[4],2
